Results on three molecules are retold here after patent US20240392004A1 (IMMUNOWAKE, published 2024).

One assay has as its target T1, mouse PD-1 (mouse, UniProt Q02242 25-167, limits assumed).
T1 construct: also called mPD-1
T1 sequence (looked up): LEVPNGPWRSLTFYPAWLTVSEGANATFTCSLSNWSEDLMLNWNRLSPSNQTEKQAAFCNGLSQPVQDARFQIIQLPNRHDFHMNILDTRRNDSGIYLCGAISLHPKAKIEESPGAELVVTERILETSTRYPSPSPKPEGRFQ
In words: same value as Table 15 (measured in PD-L2-Fc format).

The target in assay [1] is T2, human IL-2 receptor (IL-2Rα, IL-2Rβ, IL-2Rγ) (human, UniProt P01589 22-272; P14784 27-551; P31785 23-369).
T2 sequence (looked up) 1: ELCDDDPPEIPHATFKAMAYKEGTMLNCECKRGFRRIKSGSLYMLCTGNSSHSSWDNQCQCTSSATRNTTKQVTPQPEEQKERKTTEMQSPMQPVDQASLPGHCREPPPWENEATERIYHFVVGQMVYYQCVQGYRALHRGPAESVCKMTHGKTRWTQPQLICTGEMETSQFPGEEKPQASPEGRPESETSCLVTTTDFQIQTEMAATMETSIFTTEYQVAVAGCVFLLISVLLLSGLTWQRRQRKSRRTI
T2 sequence (looked up) 2: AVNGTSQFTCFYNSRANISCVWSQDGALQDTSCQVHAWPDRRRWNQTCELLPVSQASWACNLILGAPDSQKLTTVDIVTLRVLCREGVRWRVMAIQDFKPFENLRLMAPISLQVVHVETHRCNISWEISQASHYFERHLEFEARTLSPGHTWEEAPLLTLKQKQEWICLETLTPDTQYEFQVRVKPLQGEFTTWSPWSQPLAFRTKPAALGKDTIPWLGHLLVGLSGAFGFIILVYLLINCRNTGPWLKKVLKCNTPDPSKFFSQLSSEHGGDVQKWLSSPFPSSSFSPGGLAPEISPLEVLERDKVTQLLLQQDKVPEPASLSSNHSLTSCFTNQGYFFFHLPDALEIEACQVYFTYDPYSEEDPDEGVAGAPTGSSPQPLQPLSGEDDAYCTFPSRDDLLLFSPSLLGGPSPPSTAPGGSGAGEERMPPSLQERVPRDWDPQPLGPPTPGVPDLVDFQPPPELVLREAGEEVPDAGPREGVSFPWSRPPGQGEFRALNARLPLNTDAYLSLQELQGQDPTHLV
T2 sequence (looked up) 3: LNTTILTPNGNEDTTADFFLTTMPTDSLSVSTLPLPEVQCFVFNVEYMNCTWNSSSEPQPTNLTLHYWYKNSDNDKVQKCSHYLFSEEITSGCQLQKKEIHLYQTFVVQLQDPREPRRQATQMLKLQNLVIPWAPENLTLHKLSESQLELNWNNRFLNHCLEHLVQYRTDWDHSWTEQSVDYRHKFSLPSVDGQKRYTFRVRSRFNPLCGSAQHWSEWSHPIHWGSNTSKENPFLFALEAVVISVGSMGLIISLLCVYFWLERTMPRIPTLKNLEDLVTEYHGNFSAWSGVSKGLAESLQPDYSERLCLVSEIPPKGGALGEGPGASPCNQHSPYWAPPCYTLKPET
Kind of assay: cell-based or functional assay.

For assay [2], the target named is T3, human TIGIT on HEK-Blue reporter cells (human, UniProt Q495A1 22-244).
T3 sequence (looked up): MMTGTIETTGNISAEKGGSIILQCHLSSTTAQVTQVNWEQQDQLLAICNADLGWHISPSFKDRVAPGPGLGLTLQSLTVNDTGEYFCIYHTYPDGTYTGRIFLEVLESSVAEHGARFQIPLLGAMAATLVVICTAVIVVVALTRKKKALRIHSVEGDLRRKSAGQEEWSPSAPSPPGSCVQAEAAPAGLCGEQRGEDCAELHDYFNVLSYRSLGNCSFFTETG
In words: cell-based or functional assay.

Assay [3] has as its target human IL-12 receptor complex (IL-12Rβ1 and IL-12Rβ2) (human, UniProt P42701 24-662; Q99665 24-862). Kind of assay: cell-based or functional assay.
Assay [4] addresses T4, IFN-γ receptor (IFNGR1 and IFNGR2) (UniProt P15260 18-489; P38484 22-337, limits assumed).
T4 sequence (looked up) 1: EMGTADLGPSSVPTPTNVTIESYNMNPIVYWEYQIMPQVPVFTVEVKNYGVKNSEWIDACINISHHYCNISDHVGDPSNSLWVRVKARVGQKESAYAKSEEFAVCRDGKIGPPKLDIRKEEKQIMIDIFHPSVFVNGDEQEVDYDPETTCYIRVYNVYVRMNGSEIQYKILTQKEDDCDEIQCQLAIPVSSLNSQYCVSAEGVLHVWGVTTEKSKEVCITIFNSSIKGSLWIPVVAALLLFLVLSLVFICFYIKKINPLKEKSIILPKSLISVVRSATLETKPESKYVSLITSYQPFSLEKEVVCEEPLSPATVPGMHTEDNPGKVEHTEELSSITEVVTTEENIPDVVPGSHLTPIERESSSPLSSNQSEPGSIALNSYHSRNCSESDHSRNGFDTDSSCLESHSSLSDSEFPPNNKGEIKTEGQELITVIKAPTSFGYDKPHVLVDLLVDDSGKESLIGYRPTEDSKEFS
T4 sequence (looked up) 2: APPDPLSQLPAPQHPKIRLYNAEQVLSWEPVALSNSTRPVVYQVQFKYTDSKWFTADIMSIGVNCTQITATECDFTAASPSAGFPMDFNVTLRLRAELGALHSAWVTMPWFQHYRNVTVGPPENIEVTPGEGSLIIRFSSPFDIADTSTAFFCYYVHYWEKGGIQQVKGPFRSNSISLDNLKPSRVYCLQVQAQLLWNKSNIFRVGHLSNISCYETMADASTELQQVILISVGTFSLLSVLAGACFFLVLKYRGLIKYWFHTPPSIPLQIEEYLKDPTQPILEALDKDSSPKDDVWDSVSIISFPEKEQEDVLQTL
Kind of assay: cell-based or functional assay.

Chain of human IL-12 receptor complex (IL-12Rβ1 and IL-12Rβ2) (Q99665 24-862, chain 2 of 2, other chains not shown): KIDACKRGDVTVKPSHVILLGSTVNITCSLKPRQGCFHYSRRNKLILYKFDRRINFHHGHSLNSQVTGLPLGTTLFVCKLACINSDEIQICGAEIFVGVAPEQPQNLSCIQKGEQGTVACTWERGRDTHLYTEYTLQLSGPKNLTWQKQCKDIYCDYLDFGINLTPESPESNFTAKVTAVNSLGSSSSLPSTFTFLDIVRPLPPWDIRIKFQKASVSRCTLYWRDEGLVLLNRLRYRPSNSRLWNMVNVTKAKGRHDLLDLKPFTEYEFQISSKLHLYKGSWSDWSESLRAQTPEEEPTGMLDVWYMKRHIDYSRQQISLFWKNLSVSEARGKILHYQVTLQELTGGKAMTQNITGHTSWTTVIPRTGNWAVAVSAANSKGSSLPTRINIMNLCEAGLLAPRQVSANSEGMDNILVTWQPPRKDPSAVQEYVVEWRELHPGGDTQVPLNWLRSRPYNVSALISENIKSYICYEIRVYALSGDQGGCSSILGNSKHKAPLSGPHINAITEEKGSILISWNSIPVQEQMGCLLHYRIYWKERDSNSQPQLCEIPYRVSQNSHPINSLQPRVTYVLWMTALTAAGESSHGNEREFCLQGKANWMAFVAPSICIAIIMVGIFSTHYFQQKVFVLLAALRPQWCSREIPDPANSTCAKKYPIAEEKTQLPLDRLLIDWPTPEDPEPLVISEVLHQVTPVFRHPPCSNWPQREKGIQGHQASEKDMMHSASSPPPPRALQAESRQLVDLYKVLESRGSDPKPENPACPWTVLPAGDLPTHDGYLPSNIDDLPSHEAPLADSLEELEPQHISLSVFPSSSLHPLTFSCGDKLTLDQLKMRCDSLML

B1: IL-12(E59A/F60A)/PD-L2(WT)-Fc (Fc fusion)
chain 1: LFTVTVPKELYIIEHGSNVTLECNFDTGSHVNLGAITASLQKVENDTSPHRERATLLEEQLPLGKASFHIPQVQVRDEGQYQCIIIYGVAWDYKYLTLKVKASYRKINTHILKVPETDEVELTCQATGYPLAEVSWPNVSVPANTSHSRTPEGLYQVTSVLRLKPPPGRNFSCVFWNTHVRELTLASIDLQSQMEPRTHPTGSGIWELKKDVYVVELDWYPDAPGEMVVLTCDTPEEDGITWTLDQSSEVLGSGKTLTIQVKAAGDAGQYTCHKGGEVLSHSLLLLHKKEDGIWSTDILKDQKEPKNKTFLRCEAKNYSGRFTCWWLTTISTDLTFSVKSSRGSSDPQGVTCGAATLSAERVRGDNKEYEYSVECQEDSACPAAEESLPIEVMVDAVHKLKYENYTSSFFIRDIIKPDPPKNLQLKPLKNSRQVEVSWEYPDTWSTPHSYFSLTFCVQVQGKSKREKKDRVFTDKTSATVICRKNASISVRAQDRYYSSSWSEWASVPCSGGGGSGGGGSGGGGSGGGGSGRNLPVATPDPGMFPCLHHSQNLLRAVSNMLQKARQTLEFYPCTSEEIDHEDITKDKTSTVEACLPLELTKNESCLNSRETSFITNGSCLASRKTSFMMALCLSSIYEDLKMYQVEFKTMNAKLLMDPKRQIFLDQNMLAVIDELMQALNFNSETVPQKSSLEEPDFYKTKIKLCILLHAFRIRAVTIDRVMSYLNASDKTHTCPPCPAPEDEGGPSVFLFPPKPKDTLMISRTPEVTCVVVDVSHEDPEVKFNWYVDGVEVHNAKTKPREEQYNSTYRVVSVLTVLHQDWLNGKEYKCKVSNKALPAPIEKTISKAKGQPREPQVYVYPPSREEMTKNQVSLTCLVKGFYPSDIAVEWESNGQPENNYKTTPPVLDEDGSFALVSKLTVDKSRWQQGNVFSCSVMHEALHNHYTQKSLSLSPGK
chain 2: LFTVTVPKELYIIEHGSNVTLECNFDTGSHVNLGAITASLQKVENDTSPHRERATLLEEQLPLGKASFHIPQVQVRDEGQYQCIIIYGVAWDYKYLTLKVKASYRKINTHILKVPETDEVELTCQATGYPLAEVSWPNVSVPANTSHSRTPEGLYQVTSVLRLKPPPGRNFSCVFWNTHVRELTLASIDLQSQMEPRTHPTGSGDKTHTCPPCPAPEKKGGPSVFLFPPKPKDTLMISRTPEVTCVVVDVSHEDPEVKFNWYVDGVEVHNAKTKPREEQYNSTYRVVSVLTVLHQDWLNGKEYKCKVSNKALPAPIEKTISKAKGQPREPQVYVLPPSREEMTKNQVSLLCLVKGFYPSDIAVEWESNGQPENRYMTWPPVLDSDGSFFLYSKLTVDKSRWQQGNVFSCSVMHEALHNHYTQKSLSLSPGK
notes: also called IL-12(E59A/F60A)/PD-L2-Fc; construct #29
With B1, the Kd (as a rule, a measure of binding affinity in units of concentration) in the assay with mouse PD-1 was found to be 980 nM.

B2: anti-PD-1 antibody nivolumab (Opdivo) (antibody, human IgG4 S228P, kappa, V domains shown)
VH: QVQLVESGGGVVQPGRSLRLDCKASGITFSNSGMHWVRQAPGKGLEWVAVIWYDGSKRYYADSVKGRFTISRDNSKNTLFLQMNSLRAEDTAVYYCATNDDYWGQGTLVTVSS
VL: EIVLTQSPATLSLSPGERATLSCRASQSVSSYLAWYQQKPGQAPRLLIYDASNRATGIPARFSGSGSGTDFTLTISSLEPEDFAVYYCQQSSNWPRTFGQGTKVEIKR
Regarding B2, the “Percent IL-2 signal transduction (HEK-IL-2 reporter assay)” value in assay [1] was 0%.

B3: IFN-γ(A23V/A23V)/CD155-Fc/IL-12(E59A/F60A) (Fc fusion)
chain 1: WPPPGTGDVVVQAPTQVPGFLGDSVTLPCYLQVPNMEVTHVSQLTWARHGESGSMAVFHQTQGPSYSESKRLEFVAARLGAELRNASLRMFGLRVEDEGNYTCLFVTFPQGSRSVDIWLRVLAKPQNTAEVQKVQLTGEPVPMARCVSTGGRPPAQITWHSDLGGMPNTSQVPGFLSGTVTVTSLWILVPSSQVDGKNVTCKVEHESFEKPQLLTVNLTVYYPPEVSISGYDNNWYLGQNEATLTCDARSNPEPTGYNWSTTMGPLPPFAVAQGAQLLIRPVDKPINTTLICNVTNALGARQAELTVQVKEGPPSEHSGISRNGGGGSGGGDKTHTCPPCPAPEDEGGPSVFLFPPKPKDTLMISRTPEVTCVVVDVSHEDPEVKFNWYVDGVEVHNAKTKPREEQYNSTYRVVSVLTVLHQDWLNGKEYKCKVSNKALPAPIEKTISKAKGQPREPQVYVYPPSREEMTKNQVSLTCLVKGFYPSDIAVEWESNGQPENNYKTTPPVLDEDGSFALVSKLTVDKSRWQQGNVFSCSVMHEALHNHYTQKSLSLSPGKGGGGSGGGIWELKKDVYVVELDWYPDAPGEMVVLTCDTPEEDGITWTLDQSSEVLGSGKTLTIQVKAAGDAGQYTCHKGGEVLSHSLLLLHKKEDGIWSTDILKDQKEPKNKTFLRCEAKNYSGRFTCWWLTTISTDLTFSVKSSRGSSDPQGVTCGAATLSAERVRGDNKEYEYSVECQEDSACPAAEESLPIEVMVDAVHKLKYENYTSSFFIRDIIKPDPPKNLQLKPLKNSRQVEVSWEYPDTWSTPHSYFSLTFCVQVQGKSKREKKDRVFTDKTSATVICRKNASISVRAQDRYYSSSWSEWASVPCSGGGGSGGGSGGGGSRNLPVATPDPGMFPCLHHSQNLLRAVSNMLQKARQTLEFYPCTSEEIDHEDITKDKTSTVEACLPLELTKNESCLNSRETSFITNGSCLASRKTSFMMALCLSSIYEDLKMYQVEFKTMNAKLLMDPKRQIFLDQNMLAVIDELMQALNFNSETVPQKSSLEEPDFYKTKIKLCILLHAFRIRAVTIDRVMSYLNAS
chain 2: WPPPGTGDVVVQAPTQVPGFLGDSVTLPCYLQVPNMEVTHVSQLTWARHGESGSMAVFHQTQGPSYSESKRLEFVAARLGAELRNASLRMFGLRVEDEGNYTCLFVTFPQGSRSVDIWLRVLAKPQNTAEVQKVQLTGEPVPMARCVSTGGRPPAQITWHSDLGGMPNTSQVPGFLSGTVTVTSLWILVPSSQVDGKNVTCKVEHESFEKPQLLTVNLTVYYPPEVSISGYDNNWYLGQNEATLTCDARSNPEPTGYNWSTTMGPLPPFAVAQGAQLLIRPVDKPINTTLICNVTNALGARQAELTVQVKEGPPSEHSGISRNGGGSGQDPYVKEAENLKKYFNAGHSDVVDNGTLFLGILKNWKEESDRKIMQSQIVSFYFKLFKNFKDDQSIQKSVETIKEDMNVKFFNSNKKKRDDFEKLTNYSVTDLNVQRKAIHELIQVMAELSPAAKTGKRKRSQMLFRGGGGSGGGGSGGGGSGGGGSQDPYVKEAENLKKYFNAGHSDVVDNGTLFLGILKNWKEESDRKIMQSQIVSFYFKLFKNFKDDQSIQKSVETIKEDMNVKFFNSNKKKRDDFEKLTNYSVTDLNVQRKAIHELIQVMAELSPAAKTGKRKRSQMLFRGGGGGSGGGDKTHTCPPCPAPEKKGGPSVFLFPPKPKDTLMISRTPEVTCVVVDVSHEDPEVKFNWYVDGVEVHNAKTKPREEQYNSTYRVVSVLTVLHQDWLNGKEYKCKVSNKALPAPIEKTISKAKGQPREPQVYVLPPSREEMTKNQVSLLCLVKGFYPSDIAVEWESNGQPENRYMTWPPVLDSDGSFFLYSKLTVDKSRWQQGNVFSCSVMHEALHNHYTQKSLSLSPGK
In the case of B3, in assay [2], the “IL-12 signal transduction, HEK-IL-12-TIGIT” value is 60%. Besides, in assay [3], the “IL-12 signal transduction, HEK-IL-12” value was determined as 2%. Besides, in assay [4], the “IFN-γ signal transduction, HEK-IFN-γ” value is < 0.2%.
